Measured values taken from the supplement of paper PMC11502859.

System: HEK293T
Experiment: median enrichment of reporter reads in eGFP-reduced (low/intermediate) vs eGFP-high sorted cells (eGFP-extension fusion abundance) (ratio); higher = stronger loss of eGFP-fusion protein abundance (more destabilising extension)
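Further: lentiviral eGFP-IRES-mCherry reporter pool sorted by FACS 96 h post-transduction, gated on mCherry-high cells, Illumina read counts normalized per million, median across four biological replicates.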

Row | Substance | median enrichment
1 | RGKRAPVRRKGRRFRDVGGHPSPSRPCWGHGSGGGDMGPRQTASPTEHLDSNSVPGGAPTPPFSVSSCLFFFIFITKFHSF [ZFP36L2] | 5.27
2 | CSDVPFIYNNVKCNCLVP [TCP1] | 4.71
3 | YCPGVCCLAHMSLL [CLSTN2] | 19.2
4 | QELARQLPLLHPQ [TECTB] | 0.3
5 | YGSAKSLWDWKSGPGLPDRQPEDLPSTMHHGRGRSMKN [SLC39A14] | 0.591
6 | QHTQNSLTRTISFCKGF [KRR1] | 1.62
7 | WDGR [ZNF772] | 0.288
8 | SRY [IL32] | 0.749
9 | PGCLPCLPRPALVAPTALTVNPEAGSPANLWAESGESWWMRLRRRQEHLETGASWTGTLPLPGHRSSGGSNLRLNTRHPCSQK [TMEM91] | 3.37
10 | WQMVIPFYFSS [CXorf1] | 10.3
11 | QMTKP [RBFOX1] | 0.233
12 | WPQFQLSWAPAWTLPMAMPSLGNLSLPSVG [PLA2G3] | 12.4
13 | ESSTLLLQWVQKLLRPVVK [MYLK3] | 7
14 | WVAPPSWGEVPSRLRRRGARGRS [PHLDB3] | 16.2
15 | RETPTTPQPHRTNNSLQV [DCSTAMP] | 0.265
16 | WQRRS [GIMAP1] | 0.693
17 | YHH [FAM229B] | 0.611
18 | LYPFPIHSQINYNGC [SCNM1] | 7.94
19 | IIIIIII [Ile07] | 11
20 | YPGSFYGHE [ZNF700] | 0.482
21 | YHRPVPGATWGPCGGKPFPPPRGDAQPPSGPPFGHHQVPKVPQEASTLHARPASISLSFPVWPSFEGHVRWRSQARQTLTRGL [PLPP7] | 8.18
22 | YLEYIFV [CEP192] | 4.56
23 | RNHKEPSVPVHEISLLLENRNIDYQITMQLKPYCFFEQLFIPVIKTDCAEYSKRSEIGVYNYIFSDAIY [RPE] | 8.87
24 | RLYRLRR [ST3GAL6] | 10.7
25 | YPILKVALFLLDLAELVAWGVGEIKRT [SPCS2] | 11.7
26 | QGDL [DPYD] | 0.394

Row | Substance | median enrichment
27 | SGPPPAILSS [CYP4A22] | 0.549
28 | LWRWWPRGGLLGGVGDKTGQTTGPPKTVKG [HS6ST1] | 11.4
29 | REAWPR [ELOVL1] | 0.427
30 | YEDPPEE [IGF1] | 2.17
31 | WWWWW [Trp05] | 7.38
32 | WNFENKI [RNASEH2B] | 0.528
33 | SETEASLFHSPS [EPB41L4B] | 0.374
34 | KRKLKNGCLELVLQLL [REG1B] | 6.65
35 | EIKCTRSQ [NLRC4] | 9.53
36 | QVNANSIVEPGV [PRKCB] | 0.284
37 | YLSSAPVVVVVLNFRI [ZSCAN21] | 16.1
38 | GGRVGHPKR [ZNF786] | 0.607
39 | YTSGKKIFTCAGL [DDX46] | 3.47
40 | RSGTGRLLIEIHLLGGTGFP [MRNIP] | 8.41
41 | GAFFLEEESENFQTTAADSALMGCWLIGVLSMGDWNFFFV [ZNHIT6] | 8.19
42 | QIQGHK [RILPL2] | 0.367
43 | KRYPLNIFVEVSYLYQRLGLPI [C7orf25] | 15.9
44 | WGGVGPGRAGVCWHRQPPLWALGGPLKGSPTRGPDESFLSGVGSQRGSPPAAWGRAWPGRVIQRVCQPLTGSPSVAATRSTEL [FAM53B] | 5.84
45 | YRLLSKHRFSR [Degron FEM1A/C] | 5.74
46 | SGTRKEID [PCDHB16] | 0.57
47 | LVSRPWGSCFPIPEFPCSPPPVVLPDLHLELSPPESPHRRPAMEPSPPGAPWGPSP [ALPG] | 10.3
48 | RRVQRTCSSLGEEAPLKNSPPGTQLQPSGQAAGRRQRQREETLALTPSRVVIFGFAHHPGLPDGTLL [C12orf49] | 11.7
49 | QISTNKSKTNSRIPDCPIPI [PTCHD3] | 2.49
50 | REQQMELWERGEQWGYRESSSALPLGQPHLPAVSPGHFSTSQVEVLQGPAATCIRRTSFSA [SPATA19] | 4.52
51 | GGGGGGGGG [Gly09] | 3.85
52 | SQPSPPSPGAAWGGKSCSLRRAQLAGAVPGHGRFPVTHSLRKPGVIGHLAGQRSWGWF [CLCN6] | 3.27
